According to paper PMC5633918, “The coproporphyrin ferrochelatase of Staphylococcus aureus: mechanistic insights into a regulatory iron-binding site” (Biochemical Journal, 2017):

Substrate: CC1=C(CCC(=O)O)c2cc3nc(cc4[nH]c(cc5[nH]c(cc1n2)c(C)c5CCC(=O)O)c(CCC(=O)O)c4C)C(CCC(=O)O)=C3C
Assay: purified protein
Type: biochemical, Staphylococcus aureus
Conditions: 0.7 µM Fe2+ (sub-inhibitory), 0.1 M Tris-HCl pH 8.1, 0.5% sodium cholate, 0.5% Tween 20, 1 mM beta-mercaptoethanol, 30 °C

B1: S. aureus CpfC (coproporphyrin ferrochelatase) (Staphylococcus aureus subsp. aureus USA300) (protein)
chain: MTKKMGLLVMAYGTPYKESDIEPYYTDIRHGKRPSEEELQDLKDRYEFIGGLSPLAGTTDDQADALVSALNKAYADVEFKLYLGLKHISPFIEDAVEQMHNDGITEAITVVLAPHYSSFSVGSYDKRADEEAAKYGIQLTHVKHYYEQPKFIEYWTNKVNETLAQIPEEEHKDTVLVVSAHSLPKGLIEKNNDPYPQELEHTALLIKEQSNIEHIAIGWQSEGNTGTPWLGPDVQDLTRDLYEKHQYKNFIYTPVGFVCEHLEVLYDNDYECKVVCDDIGANYYRPKMPNTHPLFIGAIVDEIKSIF
notes: tag removal not mentioned
With B1 the Km was 1.5 ± 0.2 µM and the kcat was 0.175 ± 0.0067 s⁻¹.
